Source: patent US20160272683A1 (Novo Nordisk, published 2016)
Numbered stars: 1 amine (or outer) side, 2 acyl side, 3 side chain; on linkers, the order of the positions; unused ones are H or OH. Side chains are listed from the residue outwards. Ends that are not written are not given here. * marks the point of attachment. C20 diacid = O=C(O)CCCCCCCCCCCCCCCCCCC(=O)*; C18 diacid = O=C(O)CCCCCCCCCCCCCCCCC(=O)*; γGlu = O=C(O)[C@H](CCC(=O)[*:2])N[*:1]

B1: [N-terminal(C20 diacid), des1, 4G, 15Q, 21Q, 23Y, 30S, 31G, 32T, 33Y]mimylin (peptide)
peptide: {C20 diacid}-ASGLSTAALGRLSQELHELQTYPRTETGSGTY-NH2
SMILES: CC(C)C[C@H](NC(=O)CNC(=O)[C@H](CO)NC(=O)[C@H](C)NC(=O)CCCCCCCCCCCCCCCCCCC(=O)O)C(=O)N[C@@H](CO)C(=O)N[C@H](C(=O)N[C@@H](C)C(=O)N[C@@H](C)C(=O)N[C@@H](CC(C)C)C(=O)NCC(=O)N[C@@H](CCCNC(=N)N)C(=O)N[C@@H](CC(C)C)C(=O)N[C@@H](CO)C(=O)N[C@@H](CCC(N)=O)C(=O)N[C@@H](CCC(=O)O)C(=O)N[C@@H](CC(C)C)C(=O)N[C@@H](Cc1c[nH]cn1)C(=O)N[C@@H](CCC(=O)O)C(=O)N[C@@H](CC(C)C)C(=O)N[C@@H](CCC(N)=O)C(=O)N[C@H](C(=O)N[C@@H](Cc1ccc(O)cc1)C(=O)N1CCC[C@H]1C(=O)N[C@@H](CCCNC(=N)N)C(=O)N[C@H](C(=O)N[C@@H](CCC(=O)O)C(=O)N[C@H](C(=O)NCC(=O)N[C@@H](CO)C(=O)NCC(=O)N[C@H](C(=O)N[C@@H](Cc1ccc(O)cc1)C(N)=O)[C@@H](C)O)[C@@H](C)O)[C@@H](C)O)[C@@H](C)O)[C@@H](C)O
B2: [N-terminal(C18 diacid-gGlu), des1, 6T, 9V, 14E, 21T, 30T, 31G, 32T]mimylin (peptide)
peptide: {C18 diacid-γGlu}-ASELTTAVLGRLEAELHELTTLPRTETGTGTP-NH2
B3: [N-terminal(C20 diacid-gGlu), des1, 4G, 15E, 21Q, 23Y, 30S, 31G, 32T, 33Y]mimylin (peptide)
peptide: {C20 diacid-γGlu}-ASGLSTAALGRLSEELHELQTYPRTETGSGTY-NH2
SMILES: CC(C)C[C@H](NC(=O)CNC(=O)[C@H](CO)NC(=O)[C@H](C)NC(=O)CC[C@H](NC(=O)CCCCCCCCCCCCCCCCCCC(=O)O)C(=O)O)C(=O)N[C@@H](CO)C(=O)N[C@H](C(=O)N[C@@H](C)C(=O)N[C@@H](C)C(=O)N[C@@H](CC(C)C)C(=O)NCC(=O)N[C@@H](CCCNC(=N)N)C(=O)N[C@@H](CC(C)C)C(=O)N[C@@H](CO)C(=O)N[C@@H](CCC(=O)O)C(=O)N[C@@H](CCC(=O)O)C(=O)N[C@@H](CC(C)C)C(=O)N[C@@H](Cc1c[nH]cn1)C(=O)N[C@@H](CCC(=O)O)C(=O)N[C@@H](CC(C)C)C(=O)N[C@@H](CCC(N)=O)C(=O)N[C@H](C(=O)N[C@@H](Cc1ccc(O)cc1)C(=O)N1CCC[C@H]1C(=O)N[C@@H](CCCNC(=N)N)C(=O)N[C@H](C(=O)N[C@@H](CCC(=O)O)C(=O)N[C@H](C(=O)NCC(=O)N[C@@H](CO)C(=O)NCC(=O)N[C@H](C(=O)N[C@@H](Cc1ccc(O)cc1)C(N)=O)[C@@H](C)O)[C@@H](C)O)[C@@H](C)O)[C@@H](C)O)[C@@H](C)O
B4: [N-terminal(C20 diacid-gGlu), des1, 4G, 15T, 21E, 23Y, 30S, 31G, 32T, 33Y]mimylin (peptide)
peptide: {C20 diacid-γGlu}-ASGLSTAALGRLSTELHELETYPRTETGSGTY-NH2
SMILES: CC(C)C[C@H](NC(=O)CNC(=O)[C@H](CO)NC(=O)[C@H](C)NC(=O)CC[C@H](NC(=O)CCCCCCCCCCCCCCCCCCC(=O)O)C(=O)O)C(=O)N[C@@H](CO)C(=O)N[C@H](C(=O)N[C@@H](C)C(=O)N[C@@H](C)C(=O)N[C@@H](CC(C)C)C(=O)NCC(=O)N[C@@H](CCCNC(=N)N)C(=O)N[C@@H](CC(C)C)C(=O)N[C@@H](CO)C(=O)N[C@H](C(=O)N[C@@H](CCC(=O)O)C(=O)N[C@@H](CC(C)C)C(=O)N[C@@H](Cc1c[nH]cn1)C(=O)N[C@@H](CCC(=O)O)C(=O)N[C@@H](CC(C)C)C(=O)N[C@@H](CCC(=O)O)C(=O)N[C@H](C(=O)N[C@@H](Cc1ccc(O)cc1)C(=O)N1CCC[C@H]1C(=O)N[C@@H](CCCNC(=N)N)C(=O)N[C@H](C(=O)N[C@@H](CCC(=O)O)C(=O)N[C@H](C(=O)NCC(=O)N[C@@H](CO)C(=O)NCC(=O)N[C@H](C(=O)N[C@@H](Cc1ccc(O)cc1)C(N)=O)[C@@H](C)O)[C@@H](C)O)[C@@H](C)O)[C@@H](C)O)[C@@H](C)O)[C@@H](C)O
B5: [N-terminal(C18 diacid-gGlu), des1, 6T, 9V, 14T, 21E, 30T, 31G, 32T]mimylin (peptide)
peptide: {C18 diacid-γGlu}-ASELTTAVLGRLTAELHELETLPRTETGTGTP-NH2
SMILES: CC(C)C[C@H](NC(=O)[C@H](CCC(=O)O)NC(=O)[C@H](C)NC(=O)[C@@H](NC(=O)[C@H](CC(C)C)NC(=O)[C@H](CCCNC(=N)N)NC(=O)CNC(=O)[C@H](CC(C)C)NC(=O)[C@@H](NC(=O)[C@H](C)NC(=O)[C@@H](NC(=O)[C@@H](NC(=O)[C@H](CC(C)C)NC(=O)[C@H](CCC(=O)O)NC(=O)[C@H](CO)NC(=O)[C@H](C)NC(=O)CC[C@H](NC(=O)CCCCCCCCCCCCCCCCC(=O)O)C(=O)O)[C@@H](C)O)[C@@H](C)O)C(C)C)[C@@H](C)O)C(=O)N[C@@H](Cc1c[nH]cn1)C(=O)N[C@@H](CCC(=O)O)C(=O)N[C@@H](CC(C)C)C(=O)N[C@@H](CCC(=O)O)C(=O)N[C@H](C(=O)N[C@@H](CC(C)C)C(=O)N1CCC[C@H]1C(=O)N[C@@H](CCCNC(=N)N)C(=O)N[C@H](C(=O)N[C@@H](CCC(=O)O)C(=O)N[C@H](C(=O)NCC(=O)N[C@H](C(=O)NCC(=O)N[C@H](C(=O)N1CCC[C@H]1C(N)=O)[C@@H](C)O)[C@@H](C)O)[C@@H](C)O)[C@@H](C)O)[C@@H](C)O
B6: [N-terminal(C20 diacid-gGlu), des1, 4G, 15Q, 21Q, 23Y, 30S, 31Q, 32T, 33Y]mimylin (peptide)
peptide: {C20 diacid-γGlu}-ASGLSTAALGRLSQELHELQTYPRTETGSQTY-NH2
SMILES: CC(C)C[C@H](NC(=O)CNC(=O)[C@H](CO)NC(=O)[C@H](C)NC(=O)CC[C@H](NC(=O)CCCCCCCCCCCCCCCCCCC(=O)O)C(=O)O)C(=O)N[C@@H](CO)C(=O)N[C@H](C(=O)N[C@@H](C)C(=O)N[C@@H](C)C(=O)N[C@@H](CC(C)C)C(=O)NCC(=O)N[C@@H](CCCNC(=N)N)C(=O)N[C@@H](CC(C)C)C(=O)N[C@@H](CO)C(=O)N[C@@H](CCC(N)=O)C(=O)N[C@@H](CCC(=O)O)C(=O)N[C@@H](CC(C)C)C(=O)N[C@@H](Cc1c[nH]cn1)C(=O)N[C@@H](CCC(=O)O)C(=O)N[C@@H](CC(C)C)C(=O)N[C@@H](CCC(N)=O)C(=O)N[C@H](C(=O)N[C@@H](Cc1ccc(O)cc1)C(=O)N1CCC[C@H]1C(=O)N[C@@H](CCCNC(=N)N)C(=O)N[C@H](C(=O)N[C@@H](CCC(=O)O)C(=O)N[C@H](C(=O)NCC(=O)N[C@@H](CO)C(=O)N[C@@H](CCC(N)=O)C(=O)N[C@H](C(=O)N[C@@H](Cc1ccc(O)cc1)C(N)=O)[C@@H](C)O)[C@@H](C)O)[C@@H](C)O)[C@@H](C)O)[C@@H](C)O
B7: [N-terminal(C20 diacid-gGlu), des1, 9V, 15Q, 21Q, 23Y, 30S, 31G, 32T, 33Y]mimylin (peptide)
peptide: {C20 diacid-γGlu}-ASELSTAVLGRLSQELHELQTYPRTETGSGTY-NH2
SMILES: CC(C)C[C@H](NC(=O)[C@H](CCCNC(=N)N)NC(=O)CNC(=O)[C@H](CC(C)C)NC(=O)[C@@H](NC(=O)[C@H](C)NC(=O)[C@@H](NC(=O)[C@H](CO)NC(=O)[C@H](CC(C)C)NC(=O)[C@H](CCC(=O)O)NC(=O)[C@H](CO)NC(=O)[C@H](C)NC(=O)CC[C@H](NC(=O)CCCCCCCCCCCCCCCCCCC(=O)O)C(=O)O)[C@@H](C)O)C(C)C)C(=O)N[C@@H](CO)C(=O)N[C@@H](CCC(N)=O)C(=O)N[C@@H](CCC(=O)O)C(=O)N[C@@H](CC(C)C)C(=O)N[C@@H](Cc1c[nH]cn1)C(=O)N[C@@H](CCC(=O)O)C(=O)N[C@@H](CC(C)C)C(=O)N[C@@H](CCC(N)=O)C(=O)N[C@H](C(=O)N[C@@H](Cc1ccc(O)cc1)C(=O)N1CCC[C@H]1C(=O)N[C@@H](CCCNC(=N)N)C(=O)N[C@H](C(=O)N[C@@H](CCC(=O)O)C(=O)N[C@H](C(=O)NCC(=O)N[C@@H](CO)C(=O)NCC(=O)N[C@H](C(=O)N[C@@H](Cc1ccc(O)cc1)C(N)=O)[C@@H](C)O)[C@@H](C)O)[C@@H](C)O)[C@@H](C)O
B8: [des1, 4G, 15Q, 21Q, 23Y, 30S, 31K(C20 diacid-gGlu), 32T, 33Y]mimylin (peptide)
peptide: ASGLSTAALGRLSQELHELQTYPRTETGSK([γGlu-C20 diacid])TY-NH2
modifications: N-terminus assumed
SMILES: CC(C)C[C@H](NC(=O)CNC(=O)[C@H](CO)NC(=O)[C@H](C)N)C(=O)N[C@@H](CO)C(=O)N[C@H](C(=O)N[C@@H](C)C(=O)N[C@@H](C)C(=O)N[C@@H](CC(C)C)C(=O)NCC(=O)N[C@@H](CCCNC(=N)N)C(=O)N[C@@H](CC(C)C)C(=O)N[C@@H](CO)C(=O)N[C@@H](CCC(N)=O)C(=O)N[C@@H](CCC(=O)O)C(=O)N[C@@H](CC(C)C)C(=O)N[C@@H](Cc1c[nH]cn1)C(=O)N[C@@H](CCC(=O)O)C(=O)N[C@@H](CC(C)C)C(=O)N[C@@H](CCC(N)=O)C(=O)N[C@H](C(=O)N[C@@H](Cc1ccc(O)cc1)C(=O)N1CCC[C@H]1C(=O)N[C@@H](CCCNC(=N)N)C(=O)N[C@H](C(=O)N[C@@H](CCC(=O)O)C(=O)N[C@H](C(=O)NCC(=O)N[C@@H](CO)C(=O)N[C@@H](CCCCNC(=O)CC[C@H](NC(=O)CCCCCCCCCCCCCCCCCCC(=O)O)C(=O)O)C(=O)N[C@H](C(=O)N[C@@H](Cc1ccc(O)cc1)C(N)=O)[C@@H](C)O)[C@@H](C)O)[C@@H](C)O)[C@@H](C)O)[C@@H](C)O

Target: T1, human amylin 3(a) receptor (human calcitonin receptor co-expressed with RAMP-3) (human, UniProt P30988 25-474; O60896 24-148, limits assumed)
T1 sequence (looked up) 1: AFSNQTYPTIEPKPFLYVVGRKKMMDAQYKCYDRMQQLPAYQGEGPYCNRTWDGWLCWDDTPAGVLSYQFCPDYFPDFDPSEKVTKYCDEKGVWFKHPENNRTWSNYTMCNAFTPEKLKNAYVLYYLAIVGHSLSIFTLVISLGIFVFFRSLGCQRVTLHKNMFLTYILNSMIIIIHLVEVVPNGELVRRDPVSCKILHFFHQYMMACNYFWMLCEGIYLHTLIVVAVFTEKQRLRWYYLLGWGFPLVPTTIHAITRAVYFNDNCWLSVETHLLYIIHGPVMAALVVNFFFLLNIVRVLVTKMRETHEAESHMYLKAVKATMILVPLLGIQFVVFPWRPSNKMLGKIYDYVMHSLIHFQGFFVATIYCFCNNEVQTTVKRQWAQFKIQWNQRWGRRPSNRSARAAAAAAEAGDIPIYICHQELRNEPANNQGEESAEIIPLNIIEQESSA
T1 sequence (looked up) 2: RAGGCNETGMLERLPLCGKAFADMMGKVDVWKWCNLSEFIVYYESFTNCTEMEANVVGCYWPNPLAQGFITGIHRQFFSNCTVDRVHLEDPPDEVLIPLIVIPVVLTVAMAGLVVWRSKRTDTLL
Test: cell-based or functional assay

Binder | hAmylin-R funct. EC50 (pM)
B1 | 22
B2 | 386
B3 | 36
B4 | 54
B5 | 235
B6 | 37
B7 | 76
B8 | 68

Target: T2, human calcitonin receptor (human, UniProt P30988 25-474)
T2 sequence (looked up): T1 sequence (looked up) 1
Test: cell-based or functional assay

Binder | hCTR funct. EC50 (pM)
B1 | 24
B2 | 66
B3 | 21
B4 | 18
B5 | 45
B6 | 25
B7 | 60
B8 | 36
